{"source": "paper PMC6204036", "about": "“Myostatin and activin blockade by engineered follistatin results in hypertrophy and improves dystrophic pathology in mdx mouse more than myostatin blockade alone” (Skeletal Muscle, 2018)", "binders": {"B1": {"name": "activin A (ligand, UniProt P08476 311-426, looked up)", "chain": "GLECDGKVNICCKKQFFVSFKDIGWNDWIIAPSGYHANYCEGECPSHIAGTSGSSLSFHSTVINHYRMRGHSPFANLKSCCVPTKLRPMSMLYYDDGQNIIKKDIQNMIVEECGCS", "notes": "activin A (inhibin beta A chain), the ligand used in SPR"}}, "biological_target": "T1, FS-EEE-mFc (human, UniProt P19883 30-344, K76 mutagenized to glutamic acid | K81 mutagenized to glutamic acid | K82 …)", "T1 construct": "follistatin FS315, human, with K76, K81 and K82 changed to glutamic acid; FS315 cDNA (Clontech) cloned in frame to murine IgG1 Fc cDNA; also called engineered follistatin; FST-EEE-mFc", "T1 sequence (P19883 other isoform, or with tags, fused parts or gaps with the stated changes)": "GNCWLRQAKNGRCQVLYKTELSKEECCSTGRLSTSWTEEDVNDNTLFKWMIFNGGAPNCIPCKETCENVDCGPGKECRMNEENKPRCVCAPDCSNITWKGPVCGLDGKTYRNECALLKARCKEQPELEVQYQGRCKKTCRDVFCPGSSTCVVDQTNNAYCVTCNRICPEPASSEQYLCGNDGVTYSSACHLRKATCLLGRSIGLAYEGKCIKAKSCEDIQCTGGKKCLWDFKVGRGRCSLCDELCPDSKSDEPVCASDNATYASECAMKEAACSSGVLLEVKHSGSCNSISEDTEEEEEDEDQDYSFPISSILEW", "experiment": "SPR; surface plasmon resonance method as in ref. 48; which partner was immobilised and the conditions are not told", "settings": "both partners purified", "data": [{"binder": "B1", "values": [{"measurement": "Kd", "result": 6.1, "unit": "pM"}]}]}
